Here are results for 3 molecules from patent US20210371503A1 (UNIVERSITY OF COLOGNE, published 2021).

Where two headings read alike, the source gives them in different places. A value given as a limit tells only on which side of the number the result lay.

The target in assay [1] is T1, receptor-binding domain (RBD) of the spike (S) protein of SARS-CoV-2 (SARS-CoV-2, UniProt P0DTC2 319-541).
The target in assay [2] is T1, receptor-binding domain (RBD) of the …. Nature of the assay: ELISA, coated RBD [cont'd]. In general terms: In an ELISA, binding on a coated surface is turned into a signal by an enzyme label.
For assay [3], the target named is S1 (truncated S1 subunit). Nature of the assay: ELISA, coated truncated S1 [cont'd].
Assay [4] concerns the target T1, receptor-binding domain (RBD) of the …. The source holds these as a separate data set.
Assay [5] has the same target. Kind of assay: ELISA, coated RBD [cont'd]. The source holds these as a separate data set.
Assay [6] concerns the target S1 (truncated S1 subunit). Kind of assay: ELISA, coated truncated S1 [cont'd]. This is another data set of the same source.
In assay [7] the target is T1, receptor-binding domain (RBD) of the …. Kind of assay: assay not stated; row Binding Affinity Spike RBD.

B1: MnC4t1p1_A11 (antibody, V domains shown)
VH: EVQLVESGGGLVQPGGSLRLSCAASGFTFSSYSMNWVRQAPGKGLEWVSYISSSSNTRYYTDSVMGRFTISRDNAKNSLFLQMNSLRAEDTAVYYCASSKGFCSGGSCSDYWGQGTLVTVSS
VL: EIVLTQSPGTLSLSPGERATLSCRASQSVSSSYLAWYQQKPGQAPRLLIYGVSSRATGIPDRFSGSGSGTDFTLTISRLEPEDFVVYYCHQYGSSPWTFGQGTKVEIK
For the molecule B1, in assay [1], the Kd (in general, the constant that tells how readily two partners part at equilibrium) was found to be 2000 nM. Moreover, the concentration for a half-maximal effect (EC50) in assay [2] and in assay [3] was less than 100 µg/mL each time.

B2: MnC4t2p2_A4 (antibody, V domains shown)
VH: QVQLVQSGSELKKPGASVKISCKASGYIFINYAMNWVRQAPGQGLEWMGWINTNTGNPTYAQDFTGRFVFSLDTSLSTAYLQISSLEAEDTAVYYCAKIGSRNSLGVWGQGTLVTVSA
VL: EIVLTQSPGTLSLSPGERATLSCRASHSVDRSYLAWYQQKPGLAPRLLIYGASSRATGIPDRFSGSGSGTDFTLTISRLEPEDFALYYCQHFGTSSVTFGRGTRLEIK
As for B2, binding in assay [4] was put at a Kd of 14 nM. Moreover, the EC50 in assay [5] and in assay [6] was less than 100 µg/mL each time.

B3: DZIF-10c (antibody, V domains shown)
VH: QVQLVESGGGVVQPGRSLRLSCAATGFTFRRYGMHWVRQAPGKGLEWVAGILFDGSNKYYVDSVKGRFTISRDSSRNTLYLQLNSLRREDTAVYYCAKGGDYEWELLESWGQGTLVTVSS
VL: DIQMTQSPSTVSASVGDRVTITCRASQSIDNWLAWYQEKPGKAPKVLIYKASSLESGVPSRFSGRGSGTEFTLTISSLQPGDFATYYCQHYHSFPLTFGGGTKVDIKR
notes: also called HbnC3t1p1_F4(-K); EX14870
As to B3, in assay [7], the equilibrium dissociation constant (Kd) turned out to be 2 nM.
